Among the data in a protein production outcome set (Wang et al. 2014) are protein production values, retold here.

This data set is described as follows: label from the status in PepcDB records.
For “MKKSLCLSFFLTFSNPLQALVIELLEEIKTSPHKGTFKAKVLDSKKPRQVLGVYNISPHKKLTLTITHISTAIVYQPLDEKLSLETTLNPNRPTIPRNTQIVFSSKELKESHPHQMPSLNAPMQKPQNKPHSSQQPSQNFSYPEPKLGSKNSKNSLLQPLAIPSKISPTNETQTPTNDTKPPLKHSSEDQESNLFITPPTEKTLPNNTSNADISENNESNENKDNVEKQAIRDANIKEFACGKWVYDDENLQAYRPSILKRVDEDKQTATDITPCDYSTAENKSGKIITPYTKISVHKTEPLEEPQTFEAKNNFAILQARSSTEKCKRARARKDGTTRQCYLIEEPLKQAWESEYEITTQLVKAIYERPKQDDQVEPTFYETSELAYSSTRKSEITHNELNLNEKFMEFVEVYEGHYLNDIIKESSEYKEWVKNHVRFKEGVCMALEIEEQPRAKSTPLSIENSRVVCVKKGNYLFNEV”, the protein production result is given as “failed”.
Then “FDGNLKRYLKSEPIPESNDGPVKVVVAENFDEIVNNENKDVLIEFYAPWCGHCKNLEPKYKELGEKLSKDPNIVIAKMDATANDVPSPYEVRGFPTIYFSPANKKLNPKKYEGGRELSDFISYLQREAT”, with “not failed”; and “MQEIMYLAPELVLVATGLVILLTGVFLSPQSKNILGYLATLGTLAAIFLTVKSFGLLTMEGFSVQYTIFSETLSIDALSQFFKLVFLAVALIVSIASIKYTENSDHTEEFYTLVLFATFGMMIVASANDLILLFCAFELASLATFALAGFEKQNARSLEGAMKYFVIGSVSAALMLFGLSFVYGATGTTSIPLIAQNPGLLTGNPIGIVAIVLLTAGFGFKMALVPFHMWAPDTYQGSPSVVSALLAAGSKKMGFVAAFRVFIIALAALQPDWQFMFTLLAVVTMTFGNVVAVAQTSVKRMLAYSSLAQAGYIAMAFAVMTPVALAGGIMYTLAHAFMKAGAFIAAAAVVWMITSEKTGNLDIPDHLDSFRGLGKRMPLAALCMTVFVFALAGIPPTAGFMAKFVLFSSTIQAGMTWLAVIAILNSALSLFYYARLVKYMYFMPPEGKTEKVSIPFPYAAALLVAVAGVLVMGLWPEPFVELAMKAAMVLVPF”, with “failed”.
To “MIWIILASFLMYSIFVMWFSWYKTRGTDLSSSDGYFLGGRSLTGIVIASSLILTNLSTEQVVGLNGQAFGESMVVMAWEVTAPIALILMAFVFLPRYLKLGITTIPDFLEQRFDLRTRQIVSVLFLLGYATVFLPTVLYSGALVIDSIFSLSSVMDISPFMIVLCISIAIGIISCGYVILGGLKACAMSDTINGIGLIIGGLLIPILALFVLGRGDFASGVGELVSANPTKLNAIGNDQASVPWAVLLTGLLFNNLFYWCTNQSIIQRTLAAKNLAEGQKGVLFAGMFKIFGAAFLVLPGIIAYLLYGDVLANADMAYPSLVIDVMPVALSGFLAAVLFGAILSSFNNVLNSSITLFTLDIYKPIFKPNAKEPELVKAGRIFAACLAITAVVIAPFILYAPQGLYYFLQEMNGFYSLPIIAMVIVGFFSKYVPASAPKVLVAVHVVLYAGSKVVLGEVNFLYVLSVLFPINVLVMLIVGRLKPRETSFVLPTANKVDLTPWKYAKPFSAFILLTMLGVYTFFSPLGVAESSGGYTIYQFIFFIVTLAFIGGVVLFWKKTDRIRGGRVPLNQMYPFNQKSG” belongs “failed”.
Then “MKQMNVVLIGGGTGLSVLARGLREFPIDITAIVTVADNGGSTGKIRDVMDIPAPGDIRNVIAALSDSESILTQLFQYRFGENQVDGHSLGNLVIAGMTNITNDFGHAIKELSKVLNIKGQVIPSTNASVQLNAVMEDGEIVHGETNIPKTHKKIDRVFLEPSDVEPMNEAIEALEQADLIVLGPGSLYTSVISNLCVKGISEALLRTSAPKLYVSNVMTQPGETDNYDVKEHIDALTRQVGEPFIDFVICSSESYSKDVLQRYEEKNSKPVAVHKEQLKDSGIRVLTASNLVEISNEHYVRHNTKVLSKMIYELALELTSTIRFTPSDKKK”, with “not failed”; and “MDQLFRYPLHQIPLVAMAIIIALSVHEFAHAYVAYKFGDDTAKRQGRLTLSPMAHLDPIGMIAVLILGFGWARRVPVNPYNFKRPRLAGILVSIAGPISNLILSAIGLIIWYSLLTFGVLDSIPFAVADTLAQFFQIFIMLNIVLLVFNLLPIPPLDGYRVVEDLAPTNIRAKMTQYEKYGAIALLILVITPLSNYTIQPIFSVVIPYVFAFLNSIIAPIFGLL”, with “failed”.
As for “MLISHSDLNQQLKSAGIGFNATELHGFLSGLLCGGLKDQSWLPLLYQFSNDNHAYPTGLVQPVTELYEQISQTLSDVEGFTFELGLTEDENVFTQADSLSDWANQFLLGIGLAQPELAKEKGEIGEAVDDLQDICQLGYDEDDNEEELAEALEEIIEYVRTIAMLFYSHFNEGEIESKPVLH”, the protein production entry is listed as “not failed”.
To “AAGIDQYALKEFTADFTQFHIGDTVPAMYLTPEYNIKQWQQRNLPAPDAGSHWTYMGGNYVLITDTEGKILKVYDGEIFYHR” belongs “not failed”; to “MEDIEYLDEYKDLVLPGIKSSAPTASSAGVPRQRRISSDSSNSSSIDADIFQKLFHGKYLDDELLKEGSGSKSQDRRRRPPSPSSSDESNDALEALFCGK”, “failed”; to “MLIFGFIGLFFLNIFSLHAQGIVTNKDAQEEFKWALNSYNNGIYDDALLSFKKILSFDPNNLDYHFWTGNVYYRLGYVEEALMEWRNLKDQGYKVPYLRHLISTIEQRRGIFSNYELNFKKLVKVASLDNSIYKRPHGYQITSLRADKYGGYYAANFVGNEILYFDVNNNVNALVKDGFSYLKSPYDVIEANNLLYVTLYSSDEIGVYDKVLGVKRKSIGNKGTKDGELLAPQYMAIDKRNYIYVSEWGNKRVSKFGLEGDFILHFGSRTSGYKGLLGPTGVTYLNENIYVADSLRNTIEVFDTSGNHLYSVFTSIEGIEGLSSDFVGNNVIVSSKDGVYKYSIAKKTITKILKADKMNSKISSSILDANNQMIVSDFNNAKVSVYKSDASLYDSLNVDVRRIIRLGGPKIYVELNVSSKSGLPVVGLKSENFSISNENYYIVNPKVAYNVNASKDINIAVVFDKSSYMKKYDTDQIVGLNALMELSKNKNFSFINATSVPIIDNIESLTNSIRNTSSLGPYSTDAVKTDVSLKLAGSGLMSKSSRRAVVYFSGGILNRKAFEKYSLDTIVSYYKNNDIRFYLILFGNDPINSKLQYLVNETGGAVIPFSSYEGVSKVYDLILEQKTGTYLLEYYYPGPQEPNKYFNLSVEANINQQTGRGEFAYFIN”, “failed”.
Then “MTIAVTGSIATDHLMRFPGRFSEQLLPEHLHKVSLSFLVDDLVMHRGGVAGNMAFAIGVLGGEVALVGAAGADFADYRDWLKARGVNCDHVLISETAHTARFTCTTDVDMAQIASFYPGAMSEARNIKLADVVSAIGKPELVIIGANDPEAMFLHTEECRKLGLAFAADPSQQLARLSGEEIRRLVNGAAYLFTNDYEWDLLLSKTGWSEADVMAQIDLRVTTLGPKGVDLVEPDGTTIHVGVVPETSQTDPTGVGDAFRAGFLTGRSAGLGLERSAQLGSLVAVLVLESTGTQEWQWDYEAAASRLAGAYGEHAAAEIVAVLA”, with “not failed”; and “MPRKQLKGETHDQKAQIASAFGEIEQSKIFLDKRSESAAVKMDIADLLKEIIQKQLRKDYDPEVESNIFINPERGDFEVYILKKIVKEVDLPTIEIGLDEVRQIDDSLELGDYYEEGPIKLDDYLTRKSIQIIKQSVQKKVRDLERLAVYEECLEKVGEVVAGEVYQVRPNEVIFTYNTSKDHRVELVLPKSEMMKKDNPRRTPRMKLYVKRIEREKVKVRNDDGTVEEREKPDGGMKVIVSRVDDRFLYKLFESEVPEILDGLIVIKGIARVPGERAKVAVESTSSRIDPVGATVGYRGKRIQSIVKELNNENIDVIYYTDEPQVFIARALQPAKIDPMTVHADMKTRKARVMLKPDQIKYAIGKNGNNIHLAEKLTGYEIDVYRDVIDKSLEDPNDIDIIEFREEFGDDMIYQLLDGGLDTAKKILKGGVEKIEEALLGTQKSEELFVFNKTRKPVKPKERRITDDEKRYWKKIAETIYRTVREQFNDEDLKALLDDSHERSLKGDGIDPEEIRDKETNLEHHHHHH”, with “failed”; and “MMRSVGAVGEPLVVMCVACPRRGGCVVTVVAAAKSCWCRGVSRNLNPGLCPARRVSVRHSGSCILWCGLPSGRVAAVSLPSDPRRFQRIYIEWQSIYLLNMAQQQRMQGQPMIIMGDDAQRVKDRDAQEHNISAARAVADAVRSTLGPKGMDKMLVSSMGDVTVTNDGVTILQEMDIDNPTAEMIVEVAETQEDEAGDGTTTAVAIAGELLKNAEDLLERDIHPTAIIKGYNLAAEQAREEVDNVAVDVDPDDKDLIRSVAETSMTGKGAELDKELLSSIIYDAVNQVAVETNDGGIVVDAANINIETQTGHGVNESQLLRGAAISKDPVHDQMPAAVEDADVLLLNEAIEVEEAEADTSVNIESPDQLQSFLDQEEKQLKEKVQQIADTGANVVFCQKGIDDMAQHYLAKEGILAVRRTKKSDIEFLTNVLDASVVTDLDAASEADVVAGSVTRDSDDELFYVEGESEQAHGVTLLLRGSTDHVVDELERGVSDALDVSAQTLSDGRVLPGGGATEVEVASRLRDFADSVSGREQLAVEAFADSLELVPRVLAENAGLDSIDTLVDLRSAHENDDDEHIGLNVLSGDLEDTFEAGVVEPAHAKEQAVTSASEAANLVLKIDDIISAGDLSTDKGDDDGGAGGMGGGMGGGMGGMM”, with “failed”.
Then “MKRSCMPARSNRNRINSALRGQLLRYLLNGLVATAVHYTILRFTLEVLGLHSAGLANGIAAIFGIIVSFIGNRYFVFRIVQVPLAKQALLFILTYFCIALIHTCILYFWTDVYNLNYTLGFLMATAMQVVFSFFSNKFMVFK”, with “failed”; and “MSENENSQEKNELLDALNSVEEVNVGDVVKGEVLAIDDDKQVIVGIQGTGVEGVVPLKELSTQRVDDVNEAAKVGDVLDLVVISRIGSDKENGSYLLSHRRLEARKVWDDVEKEYEAGHTIKAPVTQVVKGGLVVDAGVRGFIPASMIDDHYVEDLNAYKGQELELKIIEIEPSENRLILSHRAVVEKQREAQREEALKTLQAGDVVEGKVARLTNFGAFVDLGGIDGLVHVSEISYERVEKPADVLKVGQEVTVKILSVDADRERVSLSIKATLPEPWDGIEEKAPQGAVLDGKVKRLTSFGAFVEVFPGVEGLVHISQISHQHIATPNDVLKVGQEIKVKVLDVRPDEKRLALSIKALEEKPQTADDDNESQPERRSNNNRRRNNNRDNRTASERSTANAPEESTGFTLGDLIGDELKNAESNNDENLEHHHHHH”, with “failed”.
Turning to “MERAVPLAVPLGQTEVFQALQRLHMTIFSQSVSPCGKFLAAGNNYGQIAIFSLSSALSSEAKEESKKPVVTFQAHDGPVYSMVSTDRHLLSAGDGEVKAWLWAEMLKKGCKELWRRQPPYRTSLEVPEINALLLVPKENSLILAGGDCQLHTMDLETGTFTRVLRGHTDYIHCLALRERSPEVLSGGEDGAVRLWDLRTAKEVQTIEVYKHEECSRPHNGRWIGCLATDSDWMVCGGGPALTLWHLRSSTPTTIFPIRAPQKHVTFYQDLILSAGQGRCVNQWQLSGELKAQVPGSSPGLLSLSLNQQPAAPECKVLTAAGNSCRVDVFTNLGYRAFSLSF”, the protein production entry was “failed”.
On to “DFELLHKLGGGNYGDVHLASVKDCNFVCALKRLSIKKLADFDIATQLRREIEIAFNTRHKYLLRTYAYFFDETDIYLIMEPCSNGMLYTELNRVKCFAPPTAARYVAQLAEALLYLHQHHILHRDIKPENILLDHNNNIKLADFGWSVHDPDNRRKTSCGTPEYFPPEIVGRQAYDTSADLWCLGIFCYELLVGKTPFVGKDTDQICKNIHSMHFKIPENIPSEAKDLIANLLLRDGSRRLALHRVVNHQFLLKYYYLPNNL”, for which the protein production entry was “not failed”.
